Laboratory results published in patent US20220033491A1, “COMBINATION THERAPY OF CLDN18 ANTIBODY AND CHEMOTHERAPY DRUGS” (CAFA THERAPEUTICS LIMITED, priority 2018, published 2022).

Legend:
[1] = test system: human gastric cancer PDX-GA0006 model; experiment: In vivo efficacy experiment of subcutaneous transplanted tumor in mouse PDX model (Example 2); set-up: species or system BALB/c nude mice; conditions: tumors weighed after euthanasia on D51; Ab 40 mg/kg i.p. 3 times a week; epirubicin 1.25 mg/kg, oxaliplatin 3.25 mg/kg, fluorouracil 56.25 mg/kg once a week
From the text: A 2×2×2 mm gastric cancer PDX tumor mass was inoculated into BALB/c mice (the day of inoculation was DO). On D27 of subcutaneous inoculation, the tumor volume was 128 mm^3 on average, thereby obtaining the human gastric cancer PDX-GA0006 model, or abbreviated as PDX model. The tumor-forming mice were randomly divided into 6 groups, namely solvent group, antibody group (Ab group), EOF group, EOF+Ab group, OF group, OF+Ab group. During the experiment, the general clinical symptoms of the animals were observed, and the body weight and tumor diameter were measured twice a week. On D51, the mice were euthanized. The manners of administration are listed as follows:
Solvent group: intraperitoneal injection, 3 times a week.
Ab group: antibody against CLD18A2 prepared in Example 1, 40 mg/kg, intraperitoneal injection, 3 times a week.
EOF group: a combination of epirubicin hydrochloride for intraperitoneal injection (1.25 mg/kg)+oxaliplatin for injection (3.25 mg/kg)+fluorouracil injection (56.25 mg/kg), once a week; solvent, intraperitoneal injection, 3 times a week.
EOF+Ab group: EOF (epirubicin hydrochloride (1.25 mg/kg)+oxaliplatin for injection (3.25 mg/kg)+fluorouracil injection (56.25 mg/kg)), once a week, the antibody against CLD18A2 (40 mg/kg), 3 times a week. […]

[2] = Body weight of mice given different dosages of antibody (Example 3); type: in vivo, BALB/c nude mice; conditions: 40, 70, 100 mg/kg i.p. 3 times a week for 2 weeks; FIG. 6
Method: (§1) According to Example 2, different dosage of antibodies were administered to tumor-forming mice. The administration manners are listed as follows:
(§2) 1. AB1, administered with the antibody against CLD18A2 prepared in Example 1, at a dosage of 40 mg/kg, intraperitoneal injection, 3 times a week for 2 weeks.
(§3) 2. AB2, administered with the antibody against CLD18A2 prepared in Example 1, at a dosage of 70 mg/kg, intraperitoneal injection, 3 times a week for 2 weeks.
(§4) 3. AB3, administered with the antibody against CLD18A2 prepared in Example 1, at a dosage of 100 mg/kg, intraperitoneal injection, 3 times a week for 2 weeks.

[3] = test system: human gastric cancer PDX-GA0006 model; experiment: Analysis of the administration amount of antibody in tumor-forming PDX mice (Example 3); type: in vivo, BALB/c nude mice; conditions: AB3 group: 100 mg/kg i.p. 3 times a week for 2 weeks, versus 40 and 70 mg/kg; FIG. 5
Method: as §1, §2, §3, §4

B1: Ab: humanized antibody targeting CLD18A2, heavy chain variable region SEQ ID NO: 15, light chain variable region SEQ ID NO: 13 (antibody, V domains shown)
VH: QVQLQESGPGLIKPSQTLSLTCTVSGGSISSGYNWHWIRQPPGKGLEWIGYIHYTGSTNYNPALRSRVTISVDTSKNQFSLKLSSVTAADTAIYYCARIYNGNSFPYWGQGTTVTVSS
VL: DIVMTQSPDSLAVSLGERATINCKSSQSLFNSGNQKNYLTWYQQKPGQPPKLLIYWASTRESGVPDRFSGSGSGTDFTLTISSLQAEDVAVYYCQNAYSFPYTFGGGTKLEIKR
[1]
  tumor inhibition rate compared with the solvent group (tumor weight): 1.21%
[2]
  change in body weight of mice: no significant change
[3]
  anti-tumor effects (increase in tumor volume) at different dosages: better anti-tumor effects
